These results are taken from PMC13507242.

One may read the stoichiometry N as a count of units in the complex or per binding partner.

Assay [1] has as its target CD33^M ectodomain (CD33^M ECD), residues 21-232, Endo Hf-deglycosylated (human). As to the kind of experiment: AUC; sedimentation velocity (0.4 mg/ml, 40,000 rpm) and sedimentation equilibrium (0.2, 0.1, 0.05 mg/ml, 16,000 or 20,000 rpm), 20 °C, 20 mM HEPES, 200 mM NaCl, pH 7.5; dimer to monomers.
For assay [2] the target is unchanged. The assay is described as follows: SEC-MALS; Superdex 75 10/300 GL, 20 mM HEPES, 200 mM NaCl, pH 7.5; loaded at 100 and 20 µM (<10 and 2 µM on the column); dimer to monomers. On the technique in general: In gel filtration, larger molecules generally elute earlier.
Assay [3] has as its target CD33^M ectodomain (CD33 ECD), residues 21-232, glycosylated (human). The assay is described as follows: AUC; sedimentation velocity (0.4 mg/ml, 40,000 rpm) and sedimentation equilibrium (0.2, 0.1, 0.05 mg/ml, 16,000 or 20,000 rpm), 20 °C, 20 mM HEPES, 200 mM NaCl, pH 7.5; dimer to monomers.
The target of assay [4] is CD33^M ectodomain (CD33^M ECD), residues 21-232, Endo Hf-deglycosylated (human). As to the kind of experiment: BLI; Octet RED384, 30 °C, 20 mM HEPES, 200 mM NaCl, 1 mg/mL casein, pH 7.5; Ni-NTA biosensors loaded with His6 deglycosylated CD33^M ECD WT or R119A; CLU 0.0025-5 µM; steady state (895-900 s), Hill equation; avidity.
Assay [5] addresses HA-tagged CD33^M (full-length major isoform) expressed in HEK293 / HEK293T cells (human). The assay is described as follows: co-IP; HEK293 / HEK293T cells expressing HA-tagged CD33 incubated with CLU (30 nM in the methods, 60 nM in the results), washed, lysed in 1% CHAPSO/TBS; IP with anti-HA, blot for CLU.
Assay [6] deals with endogenous CD33^M of human U937 monocytic cells (human (endogenous in U937)). As to the kind of experiment: co-IP; U937 cells (endogenous CD33) exposed to CLU (60 nM), desCLU, rCLU or CLU + Aβ; CD33 immunoprecipitated from lysates, blot for CLU.
endogenous CD33^M of human U937 monocytic cells (human (endogenous in U937)), sequence (P20138 18-364): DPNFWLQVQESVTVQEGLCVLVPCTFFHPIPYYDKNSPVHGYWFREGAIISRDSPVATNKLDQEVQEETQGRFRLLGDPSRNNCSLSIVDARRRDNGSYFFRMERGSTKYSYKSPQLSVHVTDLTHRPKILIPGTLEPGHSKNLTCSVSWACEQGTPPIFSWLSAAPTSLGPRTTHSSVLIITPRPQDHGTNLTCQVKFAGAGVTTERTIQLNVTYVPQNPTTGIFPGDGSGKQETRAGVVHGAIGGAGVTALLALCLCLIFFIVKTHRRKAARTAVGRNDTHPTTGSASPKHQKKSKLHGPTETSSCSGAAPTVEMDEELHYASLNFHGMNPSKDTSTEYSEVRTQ
For assay [7] the target is unchanged.
Assay [8] deals with CD33^M ectodomain (CD33^M ECD), residues 21-232, Endo Hf-deglycosylated (human). As to the kind of experiment: MST; Monolith NT.115, 23 °C, deglycosylated CD33 ECD labelled with Alexa Fluor 647; 20 mM HEPES pH 7.5, 150 mM NaCl, 0.05% Tween-20.
Assay [9] has the same target. As to the kind of experiment: BLI; Octet RED384, 30 °C, 20 mM HEPES, 200 mM NaCl, 1 mg/mL casein, pH 7.5; Ni-NTA biosensors loaded with His6 deglycosylated CD33^M ECD WT or R119A; CLU 0.0025-5 µM; steady state (895-900 s), Hill equation; avidity. The source holds these as a separate data set.

HA-tagged CD33^M (full-length major isoform) expressed in HEK293 / HEK293T cells (human), sequence (P20138 18-364): as above

As for “CD33^M ectodomain (CD33^M ECD), residues 21-232, Endo Hf-deglycosylated (domain or fragment)”, the Kd in assay [1] was found to be 710 nM. In [2], this substance had a Kd of 100 nM and a stoichiometry N of 2.
“CD33^M ectodomain (CD33 ECD), residues 21-232, glycosylated (domain or fragment)”: the Kd in [3] was 300 nM.
For “CLU + Aβ1-42 oligomers (CLU/Aβ 1-42 mixture) (from UniProt P10909 23-227; P10909 228-449; P05067 672-713) (complex)”, the Kd in assay [4] was determined as 28.2 nM. The substance also returned a CD33-bound CLU in the co-IP (panel d) in assay [5] of 1.38. For the same substance, the CD33-bound CLU in the co-IP (panel e) in assay [6] worked out at 1.06. In assay [7], this substance had a CD33 ITIM tyrosine phosphorylation (CD33^M-pTyr) in U937 cells, relative to no treatment (relative to no treatment (1.00)) of 11.9.
In the case of “native sialylated clusterin (CLU) purified from human plasma (from UniProt P10909 23-227; P10909 228-449) (ligand)”, the Kd in assay [4] is 27.9 nM. Besides, in [5], the CD33-bound CLU in the co-IP (panel d) stood at 1.15; the ratio of co-precipitated CLU to CD33 band intensities came to 0.85 arb. units; the ratio of co-precipitated CLU to CD33 band intensities (panel c) was determined as 0.425 arb. units; the ratio of co-precipitated CLU to CD33 band intensities, cells expressing CD33^M + CD33^m stood at 0.45 arb. units. In addition, in assay [6], the CD33-bound CLU in the co-IP (panel e) is 1.04 and the ratio of CLU to CD33 band intensities is 1.23 arb. units. Also, in [8], the Kd stood at 55.1 nM. In [7], the CD33 ITIM tyrosine phosphorylation (CD33^M-pTyr) in U937 cells, relative to no treatment (relative to no treatment (1.00)) was determined as 6.28. Besides, in assay [9], the Kd amounted to 28.9 nM.
